Measurements from the Human Domainome abundance scans (Beltran et al. 2025).
± gives the uncertainty stated by the source.

B1: Homeobox protein SIX3, residues 212 to 262; numbered along this chain, O95343 (parent)
chain: CFKERTRSLLREWYLQDPYPNPSKKRELAQATGLTPTQVGNWFKNRRQRDR

Variants of: B1
Experiment: abundance fitness (aPCA) (normalised: wild type 0, dead -1); higher = more abundant; growth selection in yeast, the domain comes from the species named
Settings: Homo sapiens

Q: For CFKERTRSLLREWYLQDPYPNPSKKRELAIATGLTPTQVGNWFKNRRQRDR [Q30I], which abundance fitness is on record?
A: Its abundance fitness is 0.228 ± 0.087.

Q: Which abundance fitness does the source give for CFKERTRSLLREWYLQDPYPNPSKKRELAVATGLTPTQVGNWFKNRRQRDR [Q30V] here?
A: Its abundance fitness is -0.163 ± 0.054.

Q: Which abundance fitness does the source give for CFKERTRSLLREWYLQDPYPNPSKKRELAGATGLTPTQVGNWFKNRRQRDR [Q30G] here?
A: Its abundance fitness is -0.166 ± 0.05.

Q: With CFKERTRSLLREWYLQDPYPNPSKKRELAPATGLTPTQVGNWFKNRRQRDR [Q30P] as the variant, how does the abundance fitness read?
A: The abundance fitness was -0.93 ± 0.15.

Q: Which abundance fitness does the source give for CFKERTRSLLREWYLQDPYPNPSKKRELAHATGLTPTQVGNWFKNRRQRDR [Q30H] here?
A: The abundance fitness was -0.149 ± 0.048.

Q: For CFKERTRSLLREWYLQDPYPNPSKKRELANATGLTPTQVGNWFKNRRQRDR [Q30N], which abundance fitness is on record?
A: The abundance fitness was 0.114 ± 0.09.

Q: For CFKERTRSLLREWYLQDPYPNPSKKRELAFATGLTPTQVGNWFKNRRQRDR [Q30F], which abundance fitness is on record?
A: Its abundance fitness is -0.284 ± 0.065.

Q: For CFKERTRSLLREWYLQDPYPNPSKKRELASATGLTPTQVGNWFKNRRQRDR [Q30S], which abundance fitness is on record?
A: The abundance fitness was -0.044 ± 0.039.

Q: With CFKERTRSLLREWYLQDPYPNPSKKRELARATGLTPTQVGNWFKNRRQRDR [Q30R] as the variant, how does the abundance fitness read?
A: Its abundance fitness is -0.329 ± 0.05.

Q: With CFKERTRSLLREWYLQDPYPNPSKKRELAWATGLTPTQVGNWFKNRRQRDR [Q30W] as the variant, how does the abundance fitness read?
A: Its abundance fitness is -0.097 ± 0.072.

Q: Which abundance fitness does the source give for CFKERTRSLLREWYLQDPYPNPSKKRELAYATGLTPTQVGNWFKNRRQRDR [Q30Y] here?
A: Its abundance fitness is -0.314 ± 0.099.

Q: For CFKERTRSLLREWYLQDPYPNPSKKRELALATGLTPTQVGNWFKNRRQRDR [Q30L], which abundance fitness is on record?
A: The abundance fitness was -0.139 ± 0.045.

Q: For CFKERTRSLLREWYLQDPYPNPSKKRELAQATGMTPTQVGNWFKNRRQRDR [L34M], which abundance fitness is on record?
A: The abundance fitness was -0.186 ± 0.093.

Q: For CFKERTRSLLREWYLQDPYPNPSKKRELAQATGNTPTQVGNWFKNRRQRDR [L34N], which abundance fitness is on record?
A: Its abundance fitness is -0.918 ± 0.18.

Q: With CFKERTRSLLREWYLQDPYPNPSKKRELAQATGRTPTQVGNWFKNRRQRDR [L34R] as the variant, how does the abundance fitness read?
A: Its abundance fitness is -0.847 ± 0.065.

Q: With CFKERTRSLLREWYLQDPYPNPSKKRELAQATGSTPTQVGNWFKNRRQRDR [L34S] as the variant, how does the abundance fitness read?
A: Its abundance fitness is -0.623 ± 0.089.

Q: Which abundance fitness does the source give for CFKERTRSLLREWYLQDPYPNPSKKRELAQATGYTPTQVGNWFKNRRQRDR [L34Y] here?
A: The abundance fitness was -0.778 ± 0.14.

Q: With CFKERTRSLLREWYLQDPYPNPSKKRELAQATGQTPTQVGNWFKNRRQRDR [L34Q] as the variant, how does the abundance fitness read?
A: Its abundance fitness is -0.634 ± 0.15.

Q: With CFKERTRSLLREWYLQDPYPNPSKKRELAQATGWTPTQVGNWFKNRRQRDR [L34W] as the variant, how does the abundance fitness read?
A: The abundance fitness was -0.606 ± 0.097.

Q: Which abundance fitness does the source give for CFKERTRSLLREWYLQDPYPNPSKKRELAQATGATPTQVGNWFKNRRQRDR [L34A] here?
A: The abundance fitness was -0.72 ± 0.097.

Q: With CFKERTRSLLREWYLQDPYPNPSKKRELAQATGGTPTQVGNWFKNRRQRDR [L34G] as the variant, how does the abundance fitness read?
A: The abundance fitness was -0.72 ± 0.086.

Q: For CFKERTRSLLREWYLQDPYPNPSKKRELAQATGCTPTQVGNWFKNRRQRDR [L34C], which abundance fitness is on record?
A: Its abundance fitness is -0.834 ± 0.093.

Q: For CFKERTRSLLREWYLQDPYPNPSKKRELAQATGDTPTQVGNWFKNRRQRDR [L34D], which abundance fitness is on record?
A: Its abundance fitness is -0.798 ± 0.2.

Q: With CFKERTRSLLREWYLQDPYPNPSKKRELAQATGVTPTQVGNWFKNRRQRDR [L34V] as the variant, how does the abundance fitness read?
A: The abundance fitness was -0.881 ± 0.11.

Q: Which abundance fitness does the source give for CFKERTRSLLREWYLQDPYPNPSKKRELAQATGITPTQVGNWFKNRRQRDR [L34I] here?
A: The abundance fitness was -0.445 ± 0.082.

Q: With CFKERTRSLLREWYLQDPYPNPSKKRELAQATGKTPTQVGNWFKNRRQRDR [L34K] as the variant, how does the abundance fitness read?
A: Its abundance fitness is -0.56 ± 0.089.

Q: Which abundance fitness does the source give for CFKERTRSLLREWYLQDPYPNPSKKRELAQATGHTPTQVGNWFKNRRQRDR [L34H] here?
A: The abundance fitness was -0.502 ± 0.33.

Q: For CFKERTRSLLREWYLQDPYPNPSKKRELAQATGTTPTQVGNWFKNRRQRDR [L34T], which abundance fitness is on record?
A: Its abundance fitness is -0.73 ± 0.21.

Q: With CFKERTRSLLREWYLQDPYPNPSKKRELAQATGFTPTQVGNWFKNRRQRDR [L34F] as the variant, how does the abundance fitness read?
A: Its abundance fitness is -0.823 ± 0.13.

Q: Which abundance fitness does the source give for CFKERTRSLLREWYLQDPYPNPSKKRELAQATGPTPTQVGNWFKNRRQRDR [L34P] here?
A: The abundance fitness was -0.75 ± 0.21.

Q: For CFKERTRSLLREWYLQDPYPNPSKKRELAQATMLTPTQVGNWFKNRRQRDR [G33M], which abundance fitness is on record?
A: Its abundance fitness is -0.75 ± 0.11.

Q: Which abundance fitness does the source give for CFKERTRSLLREWYLQDPYPNPSKKRELAQATSLTPTQVGNWFKNRRQRDR [G33S] here?
A: Its abundance fitness is -0.555 ± 0.052.

Q: Which abundance fitness does the source give for CFKERTRSLLREWYLQDPYPNPSKKRELAQATDLTPTQVGNWFKNRRQRDR [G33D] here?
A: The abundance fitness was -0.412 ± 0.079.

Q: For CFKERTRSLLREWYLQDPYPNPSKKRELAQATQLTPTQVGNWFKNRRQRDR [G33Q], which abundance fitness is on record?
A: The abundance fitness was -0.57 ± 0.087.

Q: Which abundance fitness does the source give for CFKERTRSLLREWYLQDPYPNPSKKRELAQATNLTPTQVGNWFKNRRQRDR [G33N] here?
A: The abundance fitness was 0.029 ± 0.12.

Q: For CFKERTRSLLREWYLQDPYPNPSKKRELAQATVLTPTQVGNWFKNRRQRDR [G33V], which abundance fitness is on record?
A: Its abundance fitness is -0.779 ± 0.077.

Q: For CFKERTRSLLREWYLQDPYPNPSKKRELAQATTLTPTQVGNWFKNRRQRDR [G33T], which abundance fitness is on record?
A: The abundance fitness was -0.766 ± 0.17.

Q: Which abundance fitness does the source give for CFKERTRSLLREWYLQDPYPNPSKKRELAQATKLTPTQVGNWFKNRRQRDR [G33K] here?
A: Its abundance fitness is -0.494 ± 0.073.

Q: For CFKERTRSLLREWYLQDPYPNPSKKRELAQATLLTPTQVGNWFKNRRQRDR [G33L], which abundance fitness is on record?
A: The abundance fitness was -0.812 ± 0.057.

Q: With CFKERTRSLLREWYLQDPYPNPSKKRELAQATFLTPTQVGNWFKNRRQRDR [G33F] as the variant, how does the abundance fitness read?
A: The abundance fitness was -0.774 ± 0.065.

Q: For CFKERTRSLLREWYLQDPYPNPSKKRELAQATELTPTQVGNWFKNRRQRDR [G33E], which abundance fitness is on record?
A: The abundance fitness was -0.915 ± 0.12.

Q: Which abundance fitness does the source give for CFKERTRSLLREWYLQDPYPNPSKKRELAQATALTPTQVGNWFKNRRQRDR [G33A] here?
A: The abundance fitness was -0.674 ± 0.1.

Q: For CFKERTRSLLREWYLQDPYPNPSKKRELAQATHLTPTQVGNWFKNRRQRDR [G33H], which abundance fitness is on record?
A: Its abundance fitness is -0.542 ± 0.12.

Q: For CFKERTRSLLREWYLQDPYPNPSKKRELAQATYLTPTQVGNWFKNRRQRDR [G33Y], which abundance fitness is on record?
A: Its abundance fitness is -0.978 ± 0.28.

Q: For CFKERTRSLLREWYLQDPYPNPSKKRELAQATRLTPTQVGNWFKNRRQRDR [G33R], which abundance fitness is on record?
A: The abundance fitness was -0.613 ± 0.057.

Q: With CFKERTRSLLREWYLQDPYPNPSKKRELAQATPLTPTQVGNWFKNRRQRDR [G33P] as the variant, how does the abundance fitness read?
A: The abundance fitness was -0.746 ± 0.16.

Q: With CFKERTRSLLREWYLQDPYPNPSKKRELAQATCLTPTQVGNWFKNRRQRDR [G33C] as the variant, how does the abundance fitness read?
A: Its abundance fitness is -0.643 ± 0.12.

Q: For CFKERTRSLLREWYLQDPYPNPSKKRELAQATILTPTQVGNWFKNRRQRDR [G33I], which abundance fitness is on record?
A: The abundance fitness was -0.902 ± 0.25.

Q: With CFKERTRSLLREWYLQDPYPNPSKKRELAQCTGLTPTQVGNWFKNRRQRDR [A31C] as the variant, how does the abundance fitness read?
A: The abundance fitness was -0.296 ± 0.095.

Q: For CFKERTRSLLREWYLQDPYPNPSKKRELAQGTGLTPTQVGNWFKNRRQRDR [A31G], which abundance fitness is on record?
A: The abundance fitness was -0.651 ± 0.044.

Q: Which abundance fitness does the source give for CFKERTRSLLREWYLQDPYPNPSKKRELAQVTGLTPTQVGNWFKNRRQRDR [A31V] here?
A: Its abundance fitness is -0.169 ± 0.069.
